From patent publication US7727950

Assays:
[1] = test system: T1, generic peptide substrate RARTLSFAEPG
T1 sequence: RARTLSFAEPG

[2] = test system: T2, standard peptide substrate MHRQETVDCLK
T2 sequence: MHRQETVDCLK

With “alpha-isoform of calmodulin-dependent protein kinase II (CaMKII)” the Km [1] was 300 µM and the Km [2] was 60 µM.
